According to PMC2114742:

Target: Turkey gizzard myosin, dephosphorylated (turkey)
Experiment: electron microscopy with streptavidin-gold labelling

Question: How did the percent of the filaments that contained gold particles after 24 h turn out when “Turkey gizzard myosin biotinylated with NHS-LC-biotin (complex)” was run?
Answer: Its percent of the filaments that contained gold particles after 24 h is greater than 95%.
